From US5039791A, “Peptide fragments of tissue plasminogen activator” (Monsanto Company, priority 1989, dated 1991)
Where no end group is shown, it is not given here.

The substances below were run against T1, fibrin (Homo sapiens, UniProt P02671+P02675+P02679) (assay: Fibrin binding: binding of tPA to fibrin, tPA antigen in supernatant by ELISA). Conditions: 15 μg/ml peptide; 200 ng/ml single chain melanoma tPA, 200 μg/ml human fibrinogen; no peptide = 48.
T1 construct: purchased Kabi Vitrum
T1 sequence (P02671 20-644 isoform P02671-2 limits assumed): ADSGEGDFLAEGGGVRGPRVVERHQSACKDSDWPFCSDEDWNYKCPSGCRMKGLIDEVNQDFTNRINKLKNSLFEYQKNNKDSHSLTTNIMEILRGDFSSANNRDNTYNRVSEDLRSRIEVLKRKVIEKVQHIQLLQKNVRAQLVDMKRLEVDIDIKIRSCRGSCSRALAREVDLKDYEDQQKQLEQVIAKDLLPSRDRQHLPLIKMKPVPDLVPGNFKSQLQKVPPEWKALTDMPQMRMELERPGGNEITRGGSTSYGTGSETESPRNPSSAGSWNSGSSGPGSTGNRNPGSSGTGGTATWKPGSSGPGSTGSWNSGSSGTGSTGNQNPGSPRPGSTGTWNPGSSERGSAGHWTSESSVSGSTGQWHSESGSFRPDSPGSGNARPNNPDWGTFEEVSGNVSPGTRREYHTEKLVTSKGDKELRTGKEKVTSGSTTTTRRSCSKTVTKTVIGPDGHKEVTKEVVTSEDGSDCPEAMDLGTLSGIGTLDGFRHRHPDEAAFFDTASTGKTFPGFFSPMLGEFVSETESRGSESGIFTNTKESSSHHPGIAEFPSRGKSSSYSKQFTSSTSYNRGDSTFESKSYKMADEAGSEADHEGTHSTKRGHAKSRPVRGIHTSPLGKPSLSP
T1 sequence (P02675 45-491 limits assumed): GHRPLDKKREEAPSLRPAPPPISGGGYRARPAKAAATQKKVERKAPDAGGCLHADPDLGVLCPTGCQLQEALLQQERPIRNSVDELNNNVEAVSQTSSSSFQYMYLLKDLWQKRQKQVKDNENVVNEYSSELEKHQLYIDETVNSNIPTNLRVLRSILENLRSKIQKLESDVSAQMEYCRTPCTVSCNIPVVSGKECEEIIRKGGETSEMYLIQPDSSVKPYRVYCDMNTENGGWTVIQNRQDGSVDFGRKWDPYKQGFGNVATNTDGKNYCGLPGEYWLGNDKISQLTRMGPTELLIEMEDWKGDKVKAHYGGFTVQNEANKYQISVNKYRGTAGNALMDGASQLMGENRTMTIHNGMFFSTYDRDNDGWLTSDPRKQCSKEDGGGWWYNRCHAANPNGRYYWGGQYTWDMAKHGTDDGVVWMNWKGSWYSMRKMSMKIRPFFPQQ
T1 sequence (P02679 27-437 isoform P02679-2 limits assumed): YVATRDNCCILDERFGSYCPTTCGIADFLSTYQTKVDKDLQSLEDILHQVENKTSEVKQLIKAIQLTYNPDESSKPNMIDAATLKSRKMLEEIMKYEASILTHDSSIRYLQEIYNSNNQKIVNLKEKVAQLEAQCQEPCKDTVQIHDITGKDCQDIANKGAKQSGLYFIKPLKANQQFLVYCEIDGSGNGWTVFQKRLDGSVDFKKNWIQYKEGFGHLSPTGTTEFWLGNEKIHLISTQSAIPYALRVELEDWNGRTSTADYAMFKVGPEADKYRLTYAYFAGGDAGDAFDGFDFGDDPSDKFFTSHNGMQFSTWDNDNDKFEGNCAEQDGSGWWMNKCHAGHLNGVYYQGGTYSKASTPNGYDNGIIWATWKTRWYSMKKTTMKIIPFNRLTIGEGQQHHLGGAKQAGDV
Procedure: Binding of tPA to fibrin was measured using the conventional method of Rijken et al., J. Biol. Chem. 257, 2920-2925 (1982). This method involves mixing thrombin with a solution containing tPA and fibrinogen, centrifuging the resulting clot and measuring the concentration of tPA antigen in the supernatant. In a final volume of 200 μl, the following were combined: 200 ng/ml single chain melanoma tPA, 200 μg/ml human fibrinogen, 15 μg/ml tPA peptide, 1.1 mg/ml bovine serum albumin, 0.55 mg/ml bovine gamma globulin and 10 mM ε-amino caproic acid in PBSAT. Controls omitted fibrinogen, peptide or both. Mixtures were clotted by the addition of 1 unit/ml bovine thrombin, incubated one hour at room temperature and centrifuged. tPA antigen in the supernatant was measured by conventional ELISA and the percentage bound calculated by difference using the antigen level of a control mixture with no fibrinogen as 0% bound. […] An ELISA assay kit for tPA and PAI-1 was purchased from American Diagnostica Inc. and assays were performed according to printed protocols supplied by the manufacturer with the kit except that a single lot of melanoma tPA from American Diagnostica Inc. (product 111, lot 47-01) was used as the antigen standard throughout this work and 5.0 mg/ml of BSA and 2.5 mg/ml of bovine gamma globulin were included in ELISA buffers.

% Bound (binding of tPA to fibrin) [%] | Substance
57 | LGKHNYCRNPDGDAKPWCHVLKNRR-amide (LGKHNYCRNPDGDAKPWCHVLKNRR-NH2; cysteine pairing not given here) [Peptide 166, 25 amino acid synthetic peptide amide fragment of native human tPA]
53 | NPDRDSKPWCYVFKAGKYSSEFCST-amide (NPDRDSKPWCYVFKAGKYSSEFCST-NH2; cysteine pairing not given here) [Peptide 158, 25 amino acid synthetic peptide amide fragment of native human tPA]
50 | VPVKSCSEPRCFNGGTCQQALYFSD-amide (VPVKSCSEPRCFNGGTCQQALYFSD-NH2; cysteine pairing not given here) [Peptide 148, 25 amino acid synthetic peptide amide fragment of native human tPA]
